Source: the DeepSol protein solubility set

Assay: soluble on expression in E. coli; label from the status in PepcDB or PDB records
In the case of “MSLTDSKYISIKGARVNNLKNIDVNIPRNKLVVITGLSGSGKSSLAFDTLYAEGQRRYVESLSSYARQFLGRMSKPECDFIKGIPPAIAIEQKVNSRNPRSTVGTSTEIYEYLRLLYARVGKTYSPVSGEEVKKHSIEDIVNCMLSYPEGTRYTVLTQIYLHDGRTLEQQLEIDRKQGFNRLEVNGEMVRIDEYAAGKEDVVYLLVDRMTAAKSKDAISRLTDSAETAMYEGDGMCMLRFYQPDGTTRLHTFSTKFEADGMTFEEPNDQMFSFNSPIGACPVCEGFGKVIGIDEHLVVPNRSLSVYDGAIVCWRGEKMGEWREELIHNAEKFNFPIFTPYYELTDEQRRVLWEGNQYFHGINDFFKMLEENQYKIQYRVMLARYRGKTLCPKCHGTRLKPEAGYVRVGGKNISELVDLPITELQKFFDSLTLNEHDQAVARRILTEINSRIRFLIDVGLGYLTLNRLSNSLSGGESQRINLATSLGSSLVGSLYILDEPSIGLHSRDTDRLVHVLRQLQQLGNTVVVVEHDEEIIRAADYIIDIGPNAGRLGGQVVYEGDMKDLKKGSNSYTVKYLLGEETIPVPEHRRPWNNYIEIKGARENNLKGVDARFPLNVMTVVTGVSGSGKSTLVRDIFYRALKRELDECSERPGEFVSIEGDLRNLRNVEFVDQNPIGKSSRSNPVTYIKAYDEIRKLWADQPLAKQMGYTAGHFSFNNEGGRCEECKGDGTITVEMQFMADLVLECESCHGKRFKADTLEVKFQDKNIYDILEMTVNQAIEFFTEHGQKKVVKKLIPLQDVGLGYIKLGQSSSTLSGGENQRVKLAYYLSQEKADPTLFIFDEPTTGLHFHDIRKLLDAFDALIRRGHSIVIIEHNMDVIKCADYVIDLGPEGGDKGGNIVATGTPEEVAACAASYTGQFLQEKLNHLEGHHHHHH”, the “soluble on expression in E. coli” value is reported as “soluble”. In the case of “MGSDKIHHHHHHAADVSFPDAVRKVAVINNMPVLKTKDNHEILSSELEGDGKVASEALAENIANVNYFDQVIICDSVFRAQDKVPRVNVILTKEEVRKLSEDLGVDMILSFDRIHIQTKPGVLFYPDFPMPIDAVDGIISPIVRVYIPNRDKPLFVVAKQDTISWEIEPALSDRKIVKEASEYAASIPVEHLLPHWDEVARFYYDGGNIEMRDAGVYLRENNWDEAYSQWKIAYEKRKGQQKMKAAFNIALYYEIKDNVEQAKEWLGKAKKLVKSGSRDEQLIAFYSLELEKRGSKLSQLRIQMKRFDDNF”, the “soluble on expression in E. coli” value is reported as “not soluble”. In the case of “MSITIFNRDLKEIYYEKQYKNGQLKFLYNTILGRMLLKLFISTRLFSKINAIFNNNKGSIKKIEPFINEYKIDMSEYEKKEYTSFDDFFTRKILEGKRSFSKEKSHLISPADSKLMVYEIDDDLKMNIKNSIYTVGELLNDEKLSREYKNGTCLIFRLTVDDYHRYCFIDDGSLKYRKVINGRLHTVGPISSKRYKVYSENNREYSVLKTRNFGKVIQIEVGALLVGKIKNHSIKVFKKGDEKGYFCFGGSTIVLLFKEKVIKMDEDILEYSKAGIETKIKMGEKIGETNDLEHHHHHH”, the “soluble on expression in E. coli” value is reported as “soluble”. For “MSGFRKDELIPVIIDIHGEKRKMFEDIADTVLRRVLDEEENECPPIESRGSSTSSFSTTPSSSASPLSINQLLSSSFSQPPAPQLPVPLAFNPFQLALYQSLVANNTLAFPVFGGPPSIFPLLVPPPQPQPTVESIELLKILQNMLAKQKK”, the “soluble on expression in E. coli” value was “not soluble”. With “MEFRKSPSPDGDRIELVAIYDHDERIDMNDLHRSLTGFRILTLRISATYDQDIERIAFLPTIDKLTFCKDLLNAYNFQRIIMQSYEGIKAIGSRRTRIKLNDLLAANISFPIFMNVILPDAQLNLFIKYLIAGSNHRLDGFLFAKTPNAADFNEAAIFKGVNYQPVGGREAYPEFRNIQFQLHPRTRVFYVTNNNGILATVYLDIGLRYRIDIFPAGLMSSFPLLRLPSNELTKVLRHMNPIAQLGFSLLSEKSKNRISLLRIFSDEVSISVCAYKRKEKLTLRLRNSLSSLEVHKCGPDLVIVLQNWSDCTKLDFRREMSLRHWIDHCMELATAKRIDELTLSSIKKKHKFGISLLSERLKNLICSLQVFTTDVEIILRRSIELKIVPLFLVIGQTGQIEISSFTHFFLDNFIWIRPQMSTRNWIDHCLELTNNHRLNKLIVEAGDNQEIDMDGFYRSLIGLHIKTLELKGTYSRSIQLFGSLSNVDTIVLDVELVQTTDYQRMVVLNHTKLVETRTNRVKFSLNDLLASNASFLQFTNLRIPDTQLNLFLKHWIAGSNQRQEGFSLTKEHDEQSYNQSVILKGIETRPAVRRSEHHKFDEIFTLPQYSRTLDITNCDGVEATVYFGKSWLFNLGPVTNLCCMLVWG” the “soluble on expression in E. coli” value was “not soluble”. With “AVKEMVYRTRLANGLTVALLPKKEFKEVYGSVTVQFGSVDTFVTEVDGDVKQYPGGIAHFLEHKLFEREDSSDLMSAFTSLGADSNAFTSFTKTNYLFSATDYFLENLDLLDELVTSAHFTEASILTEQDIIQQEREMYQDDPDSCLFFSTLANLYPGTPLATDIVGSEESISQINLTNLQENFTKFYKPVNMSLFLVGNFDVERVQDYFESKELKDSDFQEVAR” the “soluble on expression in E. coli” value was “not soluble”. With “EKATENSPLVMIEYSSPNTNKPLHLGHVRNNLLGNALANVMAANGNKVVKTNIVNDRGIHICKSMLAWLKYGNGETPESSGKKGDHLIGDYYVAFDKHYKAEVKELTAQYQAEGLNEEEAKAKAEANSPLMLEAREMLRKWEANDPEIRALWKKMNDWVYAGFDETYKMMGVSFDKIYYESNTYLEGKEKVMEGLEKGFFYRKEDNSVWADLTAEGLDHKLLLRGDGTSVYMTQDIGTAKLRFQDYPINKMIYVVGNEQNYHFQVLSILLDKLGFEWGKGLVHFSYGMVELPEGKMKSREGTVVDADDLMEAMIETAKETSAELGKLDGLTQEEADNIARIVGLGALKYFILKVDARKNMTFNPKESIDFN” the “soluble on expression in E. coli” value was “not soluble”. With “AVLDLDVRTCLPCGPGGKGRCFGPSICCGDELGCFVGTAEALRCQEENYLPSPCQSGQKPCGSGGRCAAAGICCSPDGCEEDPACDPEAAFS” the “soluble on expression in E. coli” value was “soluble”. With “MSLSEDKMDLYLQQGMYGPLETKPDERHLFLGSLRERVVLALTKGQVLRSKPYKEAEHELKNSHNVTLLINGELQYQSYSSYIQMASRYGVPFKIVSDLQFHTPLGIVIAADIAVNRELIYIQDDIYNRSVLKSEGHHHHHH” the “soluble on expression in E. coli” value was “soluble”. With “MGSDKIHHHHHHMSNLSLDFSDNTFQPLAARMRPENLAQYIGQQHLLAAGKPLPRAIEAGHLHSMILWGPPGTGKTTLAEVIARYASADVERISAVTSGVKEIREAIERARQNRNAGRRTILFVDEVHRFNKSQQDAFLPHIEDGTITFIGATTENPSFELNSALLSRARVYLLKSLTTDDIEQVLDQAMQDKTRGYGDQDIVLPDETRRAIAELVNGDARRALNTLEMMADMAEADDSGKRVLLPALLTEIAGERSARFDNKGDRFYDLISALHKSVRGSAPDAALYWYARIITAGGDPLYVARRCLAIASEDVGNADPRAMQVAIAAWDCFTRVGPAEGERAIAQAIVYLACAPKSNAVYTAFKAALADARERPDYDVPVHLRNAPTKLMKEMGYGQEYRYAHDEPNAYAAGEVYFPPEIAQTRYYHPTNRGLEGKIGEKLAWLAEQDQNSPTKRYR” the “soluble on expression in E. coli” value was “not soluble”. With “MQVLVRDNNVDQALRALKKKMQREGIFREMKMRGYYEKPSEKRAREKAEAVRRTRKLARKRAQREGLISNGRGSPLKLEHHHHHH” the “soluble on expression in E. coli” value was “not soluble”. With “MSLNSTLHIPKAEIHVHLEATITPSLCRKFAERNKVKLSEDIFGSEYAYQWEDFYDFIKRYDIVTGVIYTPEDYYELTYEYLKECASYNVLYVEAMVSSTHAKAKGMTYHSFLDSVHQASQDAERDFGIVSRYLMNGIRHLGADSVQETAKEVLNNPHPALVGFGLAGDELNFPPNLFTKTFDMLKQESYPITVHAGEWDGPENIRNAIHLLHPTRLGHGVRSIEDLDLVKEIVEKDIVLETCPTSNIATKIYENYESHPVKKLHDLGVRVTVNSDDPPFFNATIQGEYDAMAGIGFSAQELLSMTRNAIESSFLPEDKKTEILTKLNEGHHHHHH” the “soluble on expression in E. coli” value was “soluble”. In the case of “GSYAEGQKKRRNTLHEFKKSAKTTLTKEDPLLKIKTKKVNSADECANRCIRNRGFTFTCKAFVFDKSRKRCYWYPFNSMSSGVKKGFGHEFDLYENKDYIRNCIIGKGGSYKGTVSITKSGIKCQPWNSMIPHEHSFLPSSYRGKDLQENYCRNPRGEEGGPWCFTSNPEVRYEVCDIPQCSEV”, the “soluble on expression in E. coli” value is reported as “soluble”.
